Data taken from paper PMC3694306.

Assays:
[1] = biological target: EssB (full-length, membrane-bound, Geobacillus thermodenitrificans NG80-2) (Geobacillus thermodenitrificans NG80-2); assay: SEC; detergent-solubilised membrane-bound protein; Superdex200 HR 30/100 GL, buffers with 0.02% DDM and 1 ug/ml DOPC
[2] = biological target: EssB-C (C-terminal extracytosolic fragment of EssB, Ala241 to Lys428) (Geobacillus thermodenitrificans NG80-2); assay: crystal structure; EssB-C, tetragonal P4(3)2(1)2, two molecules in the asymmetric unit, 2.1 M malate pH 7.0, 3.2 Å; dimer made by crystallographic symmetry
[3] = biological target: EssB-C (C-terminal extracytosolic fragment of EssB, Ala241 to Lys428) (Geobacillus thermodenitrificans NG80-2); assay: SEC; soluble fragments; Superdex75 prep grade HR 16/60, buffer C (10 mM sodium phosphate pH 7.8, 20 mM NaCl, 0.5 mM TCEP), column calibrated with molecular mass standards
[4] = biological target: EssB-C^Δ (C-terminally truncated extracytosolic fragment of EssB, Ala241 to Gln397) (Geobacillus thermodenitrificans NG80-2); assay: crystal structure; EssB-C^Δ, monoclinic C2, four molecules in the asymmetric unit, 3.0 M malonate pH 7.0, 10 mM ZnCl2, 2.4 Å; dimer made by crystallographic symmetry
[5] = biological target: EssB-C^Δ (C-terminally truncated extracytosolic fragment of EssB, Ala241 to Gln397) (Geobacillus thermodenitrificans NG80-2); assay: SEC; soluble fragments; Superdex75 prep grade HR 16/60, buffer C (10 mM sodium phosphate pH 7.8, 20 mM NaCl, 0.5 mM TCEP), column calibrated with molecular mass standards
[6] = biological target: EssB-N (N-terminal, predicted cytoplasmic fragment of EssB, Ser2 to Asp214) (Geobacillus thermodenitrificans NG80-2); assay: native gel or EMSA; blue native PAGE, linear 4-16% gradient Native Bis-Tris gel, 3 ug purified EssB-N
[7] = biological target: EssB-N (N-terminal, predicted cytoplasmic fragment of EssB, Ser2 to Asp214) (Geobacillus thermodenitrificans NG80-2); assay: SEC; EssB-N (2 mg) in 100 mM citrate pH 5.5, 300 mM NaCl, 0.5% TCEP, 10% glycerol, 30 min at room temperature, Superdex75 HR 30/100 GL
[8] = biological target: EssB-N (N-terminal, predicted cytoplasmic fragment of EssB, Ser2 to Asp214) (Geobacillus thermodenitrificans NG80-2); assay: SEC; EssB-N (2 mg) in various test buffers with 0.5% TCEP and 10% glycerol (Tris-HCl pH 7.8 with 20 mM NaCl, with or without 5 mM EDTA; phosphate pH 7.8 or Bis-Tris pH 5.5 with 300 mM NaCl), 30 min at room temperature, Superdex75 HR 30/100 GL
[9] = biological target: EssB-N D54C (cysteine-free template C48S, C108S, C171S), MTSSL spin-labelled (Geobacillus thermodenitrificans NG80-2); assay: SEC; EssB-N cysteine mutants before and after MTSSL labelling (data not shown)
[10] = biological target: EssB-N D54C (cysteine-free template C48S, C108S, C171S), before MTSSL labelling (Geobacillus thermodenitrificans NG80-2); assay: as above
[11] = biological target: EssB^Δ (membrane-bound EssB truncated by 31 C-terminal residues) (Geobacillus thermodenitrificans NG80-2); assay: SEC; detergent-solubilised membrane-bound protein; Superdex200 HR 30/100 GL, buffers with 0.02% DDM and 1 ug/ml DOPC
[12] = biological target: EssB^Δ D54C (cysteine-free template C48S, C108S, C171S), MTSSL spin-labelled (Geobacillus thermodenitrificans NG80-2); assay: as above
[13] = biological target: EssB^Δ E59C (cysteine-free template C48S, C108S, C171S), MTSSL spin-labelled (Geobacillus thermodenitrificans NG80-2); assay: as above
[14] = biological target: EssB^Δ E139C (cysteine-free template C48S, C108S, C171S), MTSSL spin-labelled (Geobacillus thermodenitrificans NG80-2); assay: as above
[15] = biological target: EssB^Δ E197C (cysteine-free template C48S, C108S, C171S), MTSSL spin-labelled (Geobacillus thermodenitrificans NG80-2); assay: as above
[16] = biological target: EssB^Δ E273C (cysteine-free template C48S, C108S, C171S), MTSSL spin-labelled (Geobacillus thermodenitrificans NG80-2); assay: as above
[17] = biological target: EssB^Δ N115C (cysteine-free template C48S, C108S, C171S), MTSSL spin-labelled (Geobacillus thermodenitrificans NG80-2); assay: as above
[18] = biological target: EssB^Δ R86C (cysteine-free template C48S, C108S, C171S), MTSSL spin-labelled (Geobacillus thermodenitrificans NG80-2); assay: as above
[19] = biological target: EssB^Δ S93C (cysteine-free template C48S, C108S, C171S), MTSSL spin-labelled (Geobacillus thermodenitrificans NG80-2); assay: as above

Q: “EssB (full-length, membrane-bound, Geobacillus thermodenitrificans NG80-2) (natural protein)” was tested. Which stoichiometry N [1] did it give?
A: The stoichiometry N was 2.

Q: Which results are given for “EssB-C (C-terminal extracytosolic fragment of EssB, Ala241 to Lys428) (domain or fragment)”?
A: stoichiometry N [2]: 2; stoichiometry N [3]: 2

Q: For “EssB-C^Δ (C-terminally truncated extracytosolic fragment of EssB, Ala241 to Gln397) (domain or fragment)”, which stoichiometry N [4] is on record?
A: Its stoichiometry N is 2.

Q: And the stoichiometry N [5]?
A: Its stoichiometry N is 2.

Q: With “EssB-N (N-terminal, predicted cytoplasmic fragment of EssB, Ser2 to Asp214) (domain or fragment)” as the substance, how does the stoichiometry N [6] read?
A: Its stoichiometry N is 2.

Q: And the percent monomeric [7]?
A: The percent monomeric was over 10%.

Q: What about the stoichiometry N [8] of the same substance?
A: Its stoichiometry N is 2.

Q: How did the stoichiometry N [9] turn out when “EssB-N D54C (cysteine-free template C48S, C108S, C171S), MTSSL spin-labelled (domain or fragment)” was run?
A: Its stoichiometry N is 2.

Q: How did the stoichiometry N [10] turn out when “EssB-N D54C (cysteine-free template C48S, C108S, C171S), before MTSSL labelling (domain or fragment)” was run?
A: Its stoichiometry N is 2.

Q: How did the stoichiometry N [11] turn out when “EssB^Δ (membrane-bound EssB truncated by 31 C-terminal residues) (domain or fragment)” was run?
A: Its stoichiometry N is 2.

Q: For “EssB^Δ D54C (cysteine-free template C48S, C108S, C171S), MTSSL spin-labelled (domain or fragment)”, which stoichiometry N [12] is on record?
A: The stoichiometry N was 2.

Q: For “EssB^Δ E59C (cysteine-free template C48S, C108S, C171S), MTSSL spin-labelled (domain or fragment)”, which stoichiometry N [13] is on record?
A: The stoichiometry N was 2.

Q: For “EssB^Δ E139C (cysteine-free template C48S, C108S, C171S), MTSSL spin-labelled (domain or fragment)”, which stoichiometry N [14] is on record?
A: The stoichiometry N was 2.

Q: With “EssB^Δ E197C (cysteine-free template C48S, C108S, C171S), MTSSL spin-labelled (domain or fragment)” as the substance, how does the stoichiometry N [15] read?
A: Its stoichiometry N is 2.

Q: How did the stoichiometry N [16] turn out when “EssB^Δ E273C (cysteine-free template C48S, C108S, C171S), MTSSL spin-labelled (domain or fragment)” was run?
A: The stoichiometry N was 2.

Q: “EssB^Δ N115C (cysteine-free template C48S, C108S, C171S), MTSSL spin-labelled (domain or fragment)” was tested. Which stoichiometry N [17] did it give?
A: Its stoichiometry N is 2.

Q: How did the stoichiometry N [18] turn out when “EssB^Δ R86C (cysteine-free template C48S, C108S, C171S), MTSSL spin-labelled (domain or fragment)” was run?
A: Its stoichiometry N is 2.

Q: Which stoichiometry N [19] does the source give for “EssB^Δ S93C (cysteine-free template C48S, C108S, C171S), MTSSL spin-labelled (domain or fragment)” here?
A: The stoichiometry N was 2.
